For one substance, stoichiometry N (D1D2 per IpaA-VBS123) results are on record in paper doi:10.1101/2022.11.23.517744.

This experiment concerns the target human vinculin D1D2 (head domain subunits D1D2), wild type (human). The experiment can be described thus: native gel or EMSA. (In EMSA bound probe runs differently from free probe, usually more slowly.)

Several values for one entry are separate records, joined by “and”; a condition that tells them apart may be missing. Equal entries are not always repeated.

With “Shigella IpaA-VBS123 (C-terminal region with the three vinculin binding sites), wild type, GST cleaved (domain or fragment)”, the stoichiometry N (D1D2 per IpaA-VBS123) is 2 and 3.
